{
  "source": "patent US20100260668A1",
  "about": "(published 2010)",
  "data": [
    {"target": "VEGF (VEGF 1-165 aa, R&D Systems 293-VE-010) (UniProt P15692 27-191)", "sequence (P15692 other isoform, or with tags, fused parts or gaps limits assumed)": "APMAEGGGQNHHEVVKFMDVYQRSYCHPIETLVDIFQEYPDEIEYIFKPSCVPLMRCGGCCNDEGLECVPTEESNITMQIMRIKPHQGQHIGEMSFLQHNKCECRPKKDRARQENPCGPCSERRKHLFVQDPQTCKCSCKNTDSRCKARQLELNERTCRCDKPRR", "assay": "Direct bind ELISA, VEGF coated on plate;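 further: ELISA screening of antibodies for binding to the plate-coated target antigen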", "units": {"EC50": "nM"}, "values": [
      {"binder": "DVD452 (bispecific antibody, IgG1, DVD-Ig, outer AB071 / inner AB069; HC linker long, LC linker long; also called DVD452H; DVD452L) VH: EVQLVESGGGLVQPGGSLRLSCAASGFTINASWIHWVRQAPGKGLEWVGAIYPYSGYTNYADSVKGRFTISADTSKNTAYLQMNSLRAEDTAVYYCARWGHSTSPWAMDYWGQGTLVTVSSASTKGPSVFPLAPQVQLVQSGAEVKKPGASVKISCKASGYSFTAYYIHWVKQAPGQGLEWIGYISSYNGATNYNQKFKGRVTFTTDTSTSTAYMELRSLRSDDTAVYYCARDYDYDVGMDYWGQGTLVTVSS VL: DIQMTQSPSSLSASVGDRVTITCRASQVIRRSLAWYQQKPGKAPKLLIYAASNLASGVPSRFSGSGSGTDFTLTISSLQPEDFATYYCQQSNTSPLTFGQGTKVEIKRTVAAPSVFIFPPDIVMTQSPDSLAVSLGERATISCRASESVDNYGISFMKWFQQKPGQPPKLLIYAASNQGSGVPDRFSGSGSGTDFTLTISSLQAEDVAVYYCQQSKEVPWTFGGGTKVEIKR", "EC50": 17.8},
      {"binder": "DVD457 (bispecific antibody, IgG1, DVD-Ig, outer AB069 / inner AB071; HC linker long, LC linker short; also called DVD457H; DVD457L) VH: QVQLVQSGAEVKKPGASVKISCKASGYSFTAYYIHWVKQAPGQGLEWIGYISSYNGATNYNQKFKGRVTFTTDTSTSTAYMELRSLRSDDTAVYYCARDYDYDVGMDYWGQGTLVTVSSASTKGPSVFPLAPEVQLVESGGGLVQPGGSLRLSCAASGFTINASWIHWVRQAPGKGLEWVGAIYPYSGYTNYADSVKGRFTISADTSKNTAYLQMNSLRAEDTAVYYCARWGHSTSPWAMDYWGQGTLVTVSS VL: DIVMTQSPDSLAVSLGERATISCRASESVDNYGISFMKWFQQKPGQPPKLLIYAASNQGSGVPDRFSGSGSGTDFTLTISSLQAEDVAVYYCQQSKEVPWTFGGGTKVEIKRTVAAPDIQMTQSPSSLSASVGDRVTITCRASQVIRRSLAWYQQKPGKAPKLLIYAASNLASGVPSRFSGSGSGTDFTLTISSLQPEDFATYYCQQSNTSPLTFGQGTKVEIKR", "EC50": 1480},
      {"binder": "DVD458 (bispecific antibody, IgG1, DVD-Ig, outer AB071 / inner AB069; HC linker long, LC linker short; also called DVD458H; DVD458L) VH: EVQLVESGGGLVQPGGSLRLSCAASGFTINASWIHWVRQAPGKGLEWVGAIYPYSGYTNYADSVKGRFTISADTSKNTAYLQMNSLRAEDTAVYYCARWGHSTSPWAMDYWGQGTLVTVSSASTKGPSVFPLAPQVQLVQSGAEVKKPGASVKISCKASGYSFTAYYIHWVKQAPGQGLEWIGYISSYNGATNYNQKFKGRVTFTTDTSTSTAYMELRSLRSDDTAVYYCARDYDYDVGMDYWGQGTLVTVSS VL: DIQMTQSPSSLSASVGDRVTITCRASQVIRRSLAWYQQKPGKAPKLLIYAASNLASGVPSRFSGSGSGTDFTLTISSLQPEDFATYYCQQSNTSPLTFGQGTKVEIKRTVAAPDIVMTQSPDSLAVSLGERATISCRASESVDNYGISFMKWFQQKPGQPPKLLIYAASNQGSGVPDRFSGSGSGTDFTLTISSLQAEDVAVYYCQQSKEVPWTFGGGTKVEIKR", "EC50": 21.5},
      {"binder": "DVD463 (bispecific antibody, IgG1, DVD-Ig, outer AB069 / inner AB071; HC linker short, LC linker long; also called DVD463H; DVD463L) VH: QVQLVQSGAEVKKPGASVKISCKASGYSFTAYYIHWVKQAPGQGLEWIGYISSYNGATNYNQKFKGRVTFTTDTSTSTAYMELRSLRSDDTAVYYCARDYDYDVGMDYWGQGTLVTVSSASTKGPEVQLVESGGGLVQPGGSLRLSCAASGFTINASWIHWVRQAPGKGLEWVGAIYPYSGYTNYADSVKGRFTISADTSKNTAYLQMNSLRAEDTAVYYCARWGHSTSPWAMDYWGQGTLVTVSS VL: DIVMTQSPDSLAVSLGERATISCRASESVDNYGISFMKWFQQKPGQPPKLLIYAASNQGSGVPDRFSGSGSGTDFTLTISSLQAEDVAVYYCQQSKEVPWTFGGGTKVEIKRTVAAPSVFIFPPDIQMTQSPSSLSASVGDRVTITCRASQVIRRSLAWYQQKPGKAPKLLIYAASNLASGVPSRFSGSGSGTDFTLTISSLQPEDFATYYCQQSNTSPLTFGQGTKVEIKR", "EC50": 1730},
      {"binder": "DVD464 (bispecific antibody, IgG1, DVD-Ig, outer AB071 / inner AB069; HC linker short, LC linker long; also called DVD464H; DVD464L) VH: EVQLVESGGGLVQPGGSLRLSCAASGFTINASWIHWVRQAPGKGLEWVGAIYPYSGYTNYADSVKGRFTISADTSKNTAYLQMNSLRAEDTAVYYCARWGHSTSPWAMDYWGQGTLVTVSSASTKGPQVQLVQSGAEVKKPGASVKISCKASGYSFTAYYIHWVKQAPGQGLEWIGYISSYNGATNYNQKFKGRVTFTTDTSTSTAYMELRSLRSDDTAVYYCARDYDYDVGMDYWGQGTLVTVSS VL: DIQMTQSPSSLSASVGDRVTITCRASQVIRRSLAWYQQKPGKAPKLLIYAASNLASGVPSRFSGSGSGTDFTLTISSLQPEDFATYYCQQSNTSPLTFGQGTKVEIKRTVAAPSVFIFPPDIVMTQSPDSLAVSLGERATISCRASESVDNYGISFMKWFQQKPGQPPKLLIYAASNQGSGVPDRFSGSGSGTDFTLTISSLQAEDVAVYYCQQSKEVPWTFGGGTKVEIKR", "EC50": 19.3},
      {"binder": "DVD443 (bispecific antibody, IgG1, HC linker short, LC linker short; also called DVD443H; DVD443L) VH: QVQLVQSGAEVKKPGASVKISCKASGYSFTAYYIHWVKQAPGQGLEWIGYISSYNGATNYNQKFKGRVTFTTDTSTSTAYMELRSLRSDDTAVYYCARDYDYDVGMDYWGQGTLVTVSSASTKGPEVQLVESGGGLVQPGGSLRLSCAASGFTISDYWIHWVRQAPGKGLEWVAGITPAGGYTYYADSVKGRFTISADTSKNTAYLQMNSLRAEDTAVYYCARFVFFLPYAMDYWGQGTLVTVSS VL: DIVMTQSPDSLAVSLGERATISCRASESVDNYGISFMKWFQQKPGQPPKLLIYAASNQGSGVPDRFSGSGSGTDFTLTISSLQAEDVAVYYCQQSKEVPWTFGGGTKVEIKRTVAAPDIQMTQSPSSLSASVGDRVTITCRASQDVSTAVAWYQQKPGKAPKLLIYSASFLYSGVPSRFSGSGSGTDFTLTISSLQPEDFATYYCQQSYTTPPTFGQGTKVEIKR", "EC50": 611},
      {"binder": "DVD444 (bispecific antibody, IgG1, HC linker short, LC linker short; also called DVD444H; DVD444L) VH: EVQLVESGGGLVQPGGSLRLSCAASGFTISDYWIHWVRQAPGKGLEWVAGITPAGGYTYYADSVKGRFTISADTSKNTAYLQMNSLRAEDTAVYYCARFVFFLPYAMDYWGQGTLVTVSSASTKGPQVQLVQSGAEVKKPGASVKISCKASGYSFTAYYIHWVKQAPGQGLEWIGYISSYNGATNYNQKFKGRVTFTTDTSTSTAYMELRSLRSDDTAVYYCARDYDYDVGMDYWGQGTLVTVSS VL: DIQMTQSPSSLSASVGDRVTITCRASQDVSTAVAWYQQKPGKAPKLLIYSASFLYSGVPSRFSGSGSGTDFTLTISSLQPEDFATYYCQQSYTTPPTFGQGTKVEIKRTVAAPDIVMTQSPDSLAVSLGERATISCRASESVDNYGISFMKWFQQKPGQPPKLLIYAASNQGSGVPDRFSGSGSGTDFTLTISSLQAEDVAVYYCQQSKEVPWTFGGGTKVEIKR", "EC50": 2.44},
      {"binder": "DVD449 (bispecific antibody, IgG1, HC linker long, LC linker long; also called DVD449H; DVD449L) VH: QVQLVQSGAEVKKPGASVKISCKASGYSFTAYYIHWVKQAPGQGLEWIGYISSYNGATNYNQKFKGRVTFTTDTSTSTAYMELRSLRSDDTAVYYCARDYDYDVGMDYWGQGTLVTVSSASTKGPSVFPLAPEVQLVESGGGLVQPGGSLRLSCAASGFTISDYWIHWVRQAPGKGLEWVAGITPAGGYTYYADSVKGRFTISADTSKNTAYLQMNSLRAEDTAVYYCARFVFFLPYAMDYWGQGTLVTVSS VL: DIVMTQSPDSLAVSLGERATISCRASESVDNYGISFMKWFQQKPGQPPKLLIYAASNQGSGVPDRFSGSGSGTDFTLTISSLQAEDVAVYYCQQSKEVPWTFGGGTKVEIKRTVAAPSVFIFPPDIQMTQSPSSLSASVGDRVTITCRASQDVSTAVAWYQQKPGKAPKLLIYSASFLYSGVPSRFSGSGSGTDFTLTISSLQPEDFATYYCQQSYTTPPTFGQGTKVEIKR", "EC50": 15.6},
      {"binder": "DVD450 (bispecific antibody, IgG1, HC linker long, LC linker long; also called DVD450H; DVD450L) VH: EVQLVESGGGLVQPGGSLRLSCAASGFTISDYWIHWVRQAPGKGLEWVAGITPAGGYTYYADSVKGRFTISADTSKNTAYLQMNSLRAEDTAVYYCARFVFFLPYAMDYWGQGTLVTVSSASTKGPSVFPLAPQVQLVQSGAEVKKPGASVKISCKASGYSFTAYYIHWVKQAPGQGLEWIGYISSYNGATNYNQKFKGRVTFTTDTSTSTAYMELRSLRSDDTAVYYCARDYDYDVGMDYWGQGTLVTVSS VL: DIQMTQSPSSLSASVGDRVTITCRASQDVSTAVAWYQQKPGKAPKLLIYSASFLYSGVPSRFSGSGSGTDFTLTISSLQPEDFATYYCQQSYTTPPTFGQGTKVEIKRTVAAPSVFIFPPDIVMTQSPDSLAVSLGERATISCRASESVDNYGISFMKWFQQKPGQPPKLLIYAASNQGSGVPDRFSGSGSGTDFTLTISSLQAEDVAVYYCQQSKEVPWTFGGGTKVEIKR", "EC50": 12.1},
      {"binder": "DVD455 (bispecific antibody, IgG1, HC linker long, LC linker short; also called DVD455H; DVD455L) VH: QVQLVQSGAEVKKPGASVKISCKASGYSFTAYYIHWVKQAPGQGLEWIGYISSYNGATNYNQKFKGRVTFTTDTSTSTAYMELRSLRSDDTAVYYCARDYDYDVGMDYWGQGTLVTVSSASTKGPSVFPLAPEVQLVESGGGLVQPGGSLRLSCAASGFTISDYWIHWVRQAPGKGLEWVAGITPAGGYTYYADSVKGRFTISADTSKNTAYLQMNSLRAEDTAVYYCARFVFFLPYAMDYWGQGTLVTVSS VL: DIVMTQSPDSLAVSLGERATISCRASESVDNYGISFMKWFQQKPGQPPKLLIYAASNQGSGVPDRFSGSGSGTDFTLTISSLQAEDVAVYYCQQSKEVPWTFGGGTKVEIKRTVAAPDIQMTQSPSSLSASVGDRVTITCRASQDVSTAVAWYQQKPGKAPKLLIYSASFLYSGVPSRFSGSGSGTDFTLTISSLQPEDFATYYCQQSYTTPPTFGQGTKVEIKR", "EC50": 26.7},
      {"binder": "DVD456 (bispecific antibody, IgG1, HC linker long, LC linker short; also called DVD456H; DVD456L) VH: EVQLVESGGGLVQPGGSLRLSCAASGFTISDYWIHWVRQAPGKGLEWVAGITPAGGYTYYADSVKGRFTISADTSKNTAYLQMNSLRAEDTAVYYCARFVFFLPYAMDYWGQGTLVTVSSASTKGPSVFPLAPQVQLVQSGAEVKKPGASVKISCKASGYSFTAYYIHWVKQAPGQGLEWIGYISSYNGATNYNQKFKGRVTFTTDTSTSTAYMELRSLRSDDTAVYYCARDYDYDVGMDYWGQGTLVTVSS VL: DIQMTQSPSSLSASVGDRVTITCRASQDVSTAVAWYQQKPGKAPKLLIYSASFLYSGVPSRFSGSGSGTDFTLTISSLQPEDFATYYCQQSYTTPPTFGQGTKVEIKRTVAAPDIVMTQSPDSLAVSLGERATISCRASESVDNYGISFMKWFQQKPGQPPKLLIYAASNQGSGVPDRFSGSGSGTDFTLTISSLQAEDVAVYYCQQSKEVPWTFGGGTKVEIKR", "EC50": 1.63},
      {"binder": "DVD461 (bispecific antibody, IgG1, HC linker short, LC linker long; also called DVD461H; DVD461L) VH: QVQLVQSGAEVKKPGASVKISCKASGYSFTAYYIHWVKQAPGQGLEWIGYISSYNGATNYNQKFKGRVTFTTDTSTSTAYMELRSLRSDDTAVYYCARDYDYDVGMDYWGQGTLVTVSSASTKGPEVQLVESGGGLVQPGGSLRLSCAASGFTISDYWIHWVRQAPGKGLEWVAGITPAGGYTYYADSVKGRFTISADTSKNTAYLQMNSLRAEDTAVYYCARFVFFLPYAMDYWGQGTLVTVSS VL: DIVMTQSPDSLAVSLGERATISCRASESVDNYGISFMKWFQQKPGQPPKLLIYAASNQGSGVPDRFSGSGSGTDFTLTISSLQAEDVAVYYCQQSKEVPWTFGGGTKVEIKRTVAAPSVFIFPPDIQMTQSPSSLSASVGDRVTITCRASQDVSTAVAWYQQKPGKAPKLLIYSASFLYSGVPSRFSGSGSGTDFTLTISSLQPEDFATYYCQQSYTTPPTFGQGTKVEIKR", "EC50": 10.4}
    ]}
  ]
}
